System: MS2 coat protein
Test: apparent KD of MS2 coat protein; designed switch direction (-1 OFF switch, 1 ON switch): -1; higher = weaker reporter binding
In short: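 The buffer was Tris-HCl pH 7.5 with KCl, MgCl2, BSA, DTT, tRNA and Tween-20. In it, SNAP-549-labelled MS2 coat protein was titrated in doubling steps from 0.7 or 1.5 nM to 3 µM over chip-bound RNA switches transcribed by stalled E. coli RNA polymerase on Illumina chips. Apparent KD is the per-design median over clusters of curve fits to normalised fluorescence.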

[1] = input ligand: microRNA oligo, concentration not stated
[2] = Eterna round: R95, input ligand: microRNA oligo, concentration not stated
[3] = Eterna round: R95, input ligand: FMN 200 uM
[4] = Eterna round: R95, input ligand: none

## AUACCAUGCCGCCUAAUAGCUUUUUGCUCGUCUUAUAAAACAUGAGGAUCACCCAUGUAAAACAUGUGGCGUGACCC [Maridi] (Eterna round: R96, puzzle: Sensor v3, turn-off variant 2)
Input ligand: FMN 200 uM
  apparent KD of MS2 coat protein: 422 nM
[1]
  apparent KD of MS2 coat protein: 52.9 nM
Input ligand: none
  apparent KD of MS2 coat protein: 329 nM

## AAGUCGAGCGUGAGGAUAUCGUUCGAACGACCGAACGAGAAGGCACAUGAGGAUCACCCAUGUGAUUCAGUUCA [Brourd's EX4 #46] (Eterna round: R97, puzzle: Brourd's mod of Exclusion 4)
Input ligand: FMN 200 uM
  apparent KD of MS2 coat protein: 39.8 nM
Input ligand: none
  apparent KD of MS2 coat protein: 17.8 nM

## GAUCACUGAGGAUAUACACAGAUACAAAGUAUCUGACGGUGACAUGAGGAUCACCCAUGUAGAAGGCAGAGGUC [Omei Ex2 B2] (Eterna round: R97, puzzle: Exclusion 2)
Input ligand: FMN 200 uM
  apparent KD of MS2 coat protein: 360 nM
Input ligand: none
  apparent KD of MS2 coat protein: 696 nM

## UCAGACAUGAGGAUCACCCAUGUGUGACCCUCCUGUCUCAGUCAGGAUAUACUUUUUCAAACUUAGUAGAAGGGACAACAAAAC [Oronerused] (Eterna round: R96, puzzle: Exclusion NG 3)
Input ligand: FMN 200 uM
  apparent KD of MS2 coat protein: 37.8 nM
[1]
  apparent KD of MS2 coat protein: 27.8 nM
Input ligand: none
  apparent KD of MS2 coat protein: 61.4 nM

## CUGUUUUCCGCAGGAUAUGCUCCUCCAUUAUUUGCAGAAGGGCGUUGAACAUGAGGAUCACCCAUGUAUGUAAUUGAUUAUUGC [JR_ExcNG1_Sub070] (Eterna round: R96, puzzle: Exclusion NG 1)
Input ligand: FMN 200 uM
  apparent KD of MS2 coat protein: 27.7 nM
[1]
  apparent KD of MS2 coat protein: 27.5 nM
Input ligand: none
  apparent KD of MS2 coat protein: 33.8 nM

## AAUAACAGAGGAUAUACUGUUUUAUGUGUUUGUUAUUUUAAACAUGAGGAUCACCCAUGUAGAAGGCUGAGUAA [JMF 30] (puzzle: Exclusion 2)
[2]
  apparent KD of MS2 coat protein: 25 nM

## UUUAUAAUUUCAAUCUUCGCCAACAAACUUACGCUGGCCACAUGAGGAUCACCCAUGUUUUUUGUUCGUUUUAUUCU [Veorenxere] (Eterna round: R96, puzzle: Sensor v3, turn-off variant 2)
Input ligand: FMN 200 uM
  apparent KD of MS2 coat protein: 25 nM
[1]
  apparent KD of MS2 coat protein: 62.2 nM
Input ligand: none
  apparent KD of MS2 coat protein: 27.1 nM

## ACGGGUAAGUAAGGAUAUCCAACAGGCUGAUUUCAGUCUGAACAUGAGGAUCACCCAUGUGGGUGGGAGAAGGUACUCUCCCGC [Atbienarza] (Eterna round: R96, puzzle: Exclusion NG 2)
Input ligand: FMN 200 uM
  apparent KD of MS2 coat protein: 107 nM
[1]
  apparent KD of MS2 coat protein: 86.3 nM
Input ligand: none
  apparent KD of MS2 coat protein: 114 nM

## UGCAUGUAAGGAUAUGCAUCCGCCAACGAACCGGCGGCACAGCAGAAGGUACAUGAGGAUCACCCAUGUGUCCC [Isonrian] (Eterna round: R96, puzzle: Exclusion 4)
Input ligand: FMN 200 uM
  apparent KD of MS2 coat protein: 357 nM
[1]
  apparent KD of MS2 coat protein: 25 nM
Input ligand: none
  apparent KD of MS2 coat protein: 29.8 nM

## GCUGCGCGAGGAUAUGCGGUUCGCGCUGUGGCCCGUGGCGGACAUGAGGAUCACCCAUGUAGAAGGCGUGCGGG [Apr-15 SS2-58] (puzzle: Exclusion 2)
[2]
  apparent KD of MS2 coat protein: 10.3 nM

## AGACACUGAGGAUAUACAUGAGGAUCACCCAUGUAUGGGAAAUACGAAUGUAUUAGUUGUAGAAGGUGGUGUCG [Eternabot (L1) Solution 10] (Eterna round: R97, puzzle: Exclusion 3)
Input ligand: FMN 200 uM
  apparent KD of MS2 coat protein: 183 nM
Input ligand: none
  apparent KD of MS2 coat protein: 199 nM

## UUCCGACAUGAGGAUCACCCAUGUAAGGAUAUGCACUAGAGGACAAACCCUCUUAACGGCAGAAGGUGCAGGGA [Solaleisra] (Eterna round: R97, puzzle: Exclusion 1)
Input ligand: FMN 200 uM
  apparent KD of MS2 coat protein: 40.9 nM
Input ligand: none
  apparent KD of MS2 coat protein: 18 nM

## AAACUGCAUGUGAGGAUAUGCACCGACUAAACCGGGCAGAAGGCACAUGAGGAUCACCCAUGUCAUCCUAUUGC [Beederte] (puzzle: Brourd's mod of Exclusion 4)
[2]
  apparent KD of MS2 coat protein: 7.99 nM

## AGUACUAACACGAGAGUGUUAGUACAAUAAGCUUGUGAAACAUGAGGAUCACCCAUGUCCUCAUAAGCUCGUCUUAU [salish99_TOv2_r3_029] (puzzle: Sensor v3, turn-off variant 2)
[3]
  apparent KD of MS2 coat protein: 18.1 nM
[2]
  apparent KD of MS2 coat protein: 949 nM
[4]
  apparent KD of MS2 coat protein: 17.2 nM

## CAGUACUGAGGAUAUACAUGAGGAUCACCCAUGUAAUAAGGUUAGGAAACUAACCUAUGUAGAAGGCAGUACUG [Eli x3 4.07] (Eterna round: R97, puzzle: Exclusion 3)
Input ligand: FMN 200 uM
  apparent KD of MS2 coat protein: 13.2 nM
Input ligand: none
  apparent KD of MS2 coat protein: 14.7 nM

## CGGUGCUGAGGAUAUACAUGAGGAUCACCCAUGUGUUCUUGCUAGCGUACUGGCAGAUGUAGAAGGCGGUACUG [JL-ex3-3.45 Brourd mod] (puzzle: Exclusion 3)
[3]
  apparent KD of MS2 coat protein: 99.7 nM
[2]
  apparent KD of MS2 coat protein: 19.7 nM
[4]
  apparent KD of MS2 coat protein: 22.7 nM

## AGUAACUCAUGAGGAUAUCACAUGAGGAUCACCCAUGUAUAGCGCGCUAUGCUAGUCCUCGUAUAUGAGAAGGUAUGAUAAAUG [JL ViennaUCT Quve mod 3] (Eterna round: R96, puzzle: Exclusion NG 2)
Input ligand: FMN 200 uM
  apparent KD of MS2 coat protein: 22 nM
[1]
  apparent KD of MS2 coat protein: 15.7 nM
Input ligand: none
  apparent KD of MS2 coat protein: 25.7 nM

## GUCCGGCAUGUAGGAUAUGGAUCCGAUUAGGAUCCAGAAGGACAUGAGGAUCACCCAUGUACAUGUAAACAGUCAUCACCGGAC [Fiskers ExNg1 - 13] (Eterna round: R96, puzzle: Exclusion NG 1)
Input ligand: FMN 200 uM
  apparent KD of MS2 coat protein: 44.6 nM
[1]
  apparent KD of MS2 coat protein: 14.1 nM
Input ligand: none
  apparent KD of MS2 coat protein: 18.7 nM

## ACGUGAUAUCUGUCGGUGGACAUGAGGAUCACCCAUGUAAGCUUUCUGCUCGUCUUAUAACCCGGUGACAGACCUUC [Diteerquus] (puzzle: Sensor v3, turn-off variant 1)
[3]
  apparent KD of MS2 coat protein: 45.3 nM
[2]
  apparent KD of MS2 coat protein: 310 nM
[4]
  apparent KD of MS2 coat protein: 56.9 nM

## GCUGCACAUGUAGGAUAUCUGCACGAUUAGUGCAGAGAAGGACAUGAGGAUCACCCAUGUAGAUCAGCAGCAAUUAAUUUAAUU [ENG1/6-A1] (Eterna round: R96, puzzle: Exclusion NG 1)
Input ligand: FMN 200 uM
  apparent KD of MS2 coat protein: 232 nM
[1]
  apparent KD of MS2 coat protein: 241 nM
Input ligand: none
  apparent KD of MS2 coat protein: 400 nM

## GGUAGAGUGGCAGGAUAUCCGUCUGUUUCAGUCGGAGAAGGGCCACAGUCACUGGGUCCAAAUAUGGGUGACCAUGUAUCUACC [pwkr exNG1 F6.4] (Eterna round: R96, puzzle: Exclusion NG 1)
Input ligand: FMN 200 uM
  apparent KD of MS2 coat protein: 22 nM
[1]
  apparent KD of MS2 coat protein: 28.4 nM
Input ligand: none
  apparent KD of MS2 coat protein: 34.8 nM

## CACCGGUGAGACAACAUGAGGAUCACCCAUGUGAACAGCUCACAGGAUAUCCAGGCACGAAAGAAGGAGAAGGGUGGCUGACUC [Veuson] (Eterna round: R96, puzzle: Exclusion NG 3)
Input ligand: FMN 200 uM
  apparent KD of MS2 coat protein: 17.2 nM
[1]
  apparent KD of MS2 coat protein: 13.6 nM
Input ligand: none
  apparent KD of MS2 coat protein: 17.4 nM

## GGAUCGAGUGUGAGGAUAUACCUAUGGAUACAUAGGUAGAAGGCACAUGAGGAUCACCCAUGUCCUAACGGUCC [Eli bmx4 4.15] (Eterna round: R97, puzzle: Brourd's mod of Exclusion 4)
Input ligand: FMN 200 uM
  apparent KD of MS2 coat protein: 933 nM
Input ligand: none
  apparent KD of MS2 coat protein: 308 nM

## GUCAGCUCGUCAGGAUAUACAUGAGGAUCACCCAUGUGAUCAAUAGCAGCUUCGGCUGCAUACAUGUAGAAGGGACGAGCUGAU [ENG2/6-B2] (Eterna round: R96, puzzle: Exclusion NG 2)
Input ligand: FMN 200 uM
  apparent KD of MS2 coat protein: 195 nM
[1]
  apparent KD of MS2 coat protein: 15.3 nM
Input ligand: none
  apparent KD of MS2 coat protein: 160 nM

## ACGAUGACAGAAAGAAGUCAAAAGACAUGAGGAUCACCCAUGUAGGAUAUGGCUACGAAAAGUAGUCAGAAGGACUUGUCAUCA [Omei Exc(NG) 3 Av2] (Eterna round: R96, puzzle: Exclusion NG 3)
Input ligand: FMN 200 uM
  apparent KD of MS2 coat protein: 13.1 nM
[1]
  apparent KD of MS2 coat protein: 9.48 nM
Input ligand: none
  apparent KD of MS2 coat protein: 14.3 nM

## UACAAGCUUUUAAGAUCCUACAUGAGGAUCACCCAUGUGCUCGUCUUGUAACGUACUGUGACGAAAGUCACGGUACG [JL TOV1 3.22] (Eterna round: R97, puzzle: Sensor, turn-off variant 1)
Input ligand: FMN 200 uM
  apparent KD of MS2 coat protein: 206 nM
Input ligand: none
  apparent KD of MS2 coat protein: 220 nM

## UUCUUCUCUGUUAGGAUAUUCUCCGCAGAUGCCUGGAAGAAGGGACAUGAGGAUCACCCAUGUAGUGUAAGCUA [Eternabot (L2) Solution 58] (Eterna round: R97, puzzle: Brourd's mod of Exclusion 4)
Input ligand: FMN 200 uM
  apparent KD of MS2 coat protein: 40.6 nM
Input ligand: none
  apparent KD of MS2 coat protein: 62.8 nM

## GGUUUGGGAGGAUAUGGUUUUAAUAACAUGAGGAUCACCCAUGUAAAUAGAUCCUCGAGGCCAGAAGGCUCGGGCC [-24.9, -23.72 kcal, A 28%] (Eterna round: R97, puzzle: Exclusion 5)
Input ligand: FMN 200 uM
  apparent KD of MS2 coat protein: 405 nM
Input ligand: none
  apparent KD of MS2 coat protein: 85.7 nM

## GGUUGGCGAGGAUAUACAUGAGGAUCACCCAUGUGGUCCUGAAAAAAAAAAAACCUUUGUAGAAGGCGCGGGUC [salish99_ex3_r4_035] (Eterna round: R97, puzzle: Exclusion 3)
Input ligand: FMN 200 uM
  apparent KD of MS2 coat protein: 256 nM
Input ligand: none
  apparent KD of MS2 coat protein: 150 nM

## GCUCGUGGGCAAGGAUAUCCUACGCUGUUCUGGUUCGUGUCUGUCACAUGAGGAUCACCCAUGUGGGAGAAGGUGCACCAGGGU [Design 51] (Eterna round: R96, puzzle: Exclusion NG 2)
Input ligand: FMN 200 uM
  apparent KD of MS2 coat protein: 10.8 nM
[1]
  apparent KD of MS2 coat protein: 9.67 nM
Input ligand: none
  apparent KD of MS2 coat protein: 14 nM

## AAGAUGCGGGUAGGAUAUGGAGAGAAAGAAAGACCAGAAGGACUGGUCACACAACAUGAGGAUCACCCAUGUGUGUGUUGCGAA [EX ng 1 6] (Eterna round: R96, puzzle: Exclusion NG 1)
[1]
  apparent KD of MS2 coat protein: 8.52 nM

## AAUAAGUUAGGAUAUACAUGAGGAUCACCCAUGUCCCACCCGUUACCUAUGACCAUAUGUAGAAGGAGCAAUAA [Exy#2] (Eterna round: R97, puzzle: Exclusion 3)
Input ligand: FMN 200 uM
  apparent KD of MS2 coat protein: 62.1 nM
Input ligand: none
  apparent KD of MS2 coat protein: 32.7 nM

## CAGCUGUCAGGAUAUCGUGCAUACAACGAAAGUUCUAUGUGCGAGAAGGGACAUGAGGAUCACCCAUGUAAACG [Omei Ex4 A26] (Eterna round: R97, puzzle: Exclusion 4)
Input ligand: FMN 200 uM
  apparent KD of MS2 coat protein: 101 nM
Input ligand: none
  apparent KD of MS2 coat protein: 57.4 nM
